Reference: publication PMC4218836, “Generation of a Single Chain Antibody Variable Fragment (scFv) to Sense Selectively RhoB Activation” (PLoS ONE, 2014)

Key:
GST-RhoAL63 = GST-RhoAL63 (Homo sapiens (species assumed), UniProt P61586, L63)
GST-RhoCL63 = GST-RhoCL63 (Homo sapiens (species assumed), UniProt P08134, L63)
GST-RhoBL63 [1] = biological target: T1, GST-RhoBL63 (Homo sapiens (species assumed), UniProt P62745, L63)
endogenous RhoA = biological target: T2, endogenous RhoA (human (endogenous in HeLa), UniProt P61586); assay: pull-down; CBD-pulldown: scFv-bound chitin beads (0,5-1 µg) with HeLa cell extracts loaded with GTPγS (100 µM), 45 min at 4°C; Western blot with anti-RhoA, anti-RhoB, anti-RhoC; GDP-loaded extracts beside it; conditions: one partner purified
T2 construct: RhoA, endogenous in HeLa S3 cells; source: endogenous, HeLa cell extract

endogenous RhoC = biological target: T3, endogenous RhoC (Homo sapiens (HeLa S3), UniProt P08134); assay: as above; conditions: one partner purified
T3 construct: RhoC, endogenous in HeLa S3 cells; source: endogenous, HeLa cell extract

endogenous RhoB = biological target: T4, endogenous RhoB (human (endogenous in HeLa), UniProt P62745); assay: as above; conditions: one partner purified
T4 construct: RhoB, endogenous in HeLa S3 cells; source: endogenous, HeLa cell extract

6xHis-RhoAL63 = biological target: T5, 6xHis-RhoAL63 (Homo sapiens (species assumed), UniProt P61586, L63); assay: ELISA; competitive ELISA (method of Friguet): purified scFvs (10^-9-10^-8 M) incubated until equilibrium (30 min, 23-25°C) with a range of concentrations of soluble 6xHis-RhoL63, free scFv then quantified on GST-Rho-coated plates with anti-c-myc-HRP; nonlinear regression; conditions: both partners purified
T5 construct: RhoA, mutant L63, cDNA in the pHIS parallel2 vector; also called 6his-RhoL63; source: E. coli BL21, purified (Ni-NTA, native condition); not shown: 6xHis, N-terminal, kept

[2] = biological target: T6, recombinant wild type GST-RhoB (Homo sapiens (species assumed), UniProt P62745); assay: ELISA; purified scFvs on wild type GST-Rho loaded with GTPγS (from crude bacterial extracts) and captured on glutathione coated plates; GDP-loaded GST-Rho beside it; conditions: one partner purified
T6 construct: RhoB wild type, loaded with GDP or GTPγS; also called RhoBwt; GST-RhoBwt; source: E. coli BL21, crude bacterial extract, nucleotide-loaded

[3] = biological target: T7, recombinant wild type GST-RhoA (Homo sapiens (species assumed), UniProt P61586); assay: as above; conditions: one partner purified
T7 construct: RhoA wild type, loaded with GDP or GTPγS; also called RhoAwt; RhoA-GTPγS; source: E. coli BL21, crude bacterial extract, nucleotide-loaded

6xHis-RhoBL63 = biological target: T8, 6xHis-RhoBL63 (Homo sapiens (species assumed), UniProt P62745, L63); assay: ELISA; competitive ELISA (method of Friguet): purified scFvs (10^-9-10^-8 M) incubated until equilibrium (30 min, 23-25°C) with a range of concentrations of soluble 6xHis-RhoL63, free scFv then quantified on GST-Rho-coated plates with anti-c-myc-HRP; nonlinear regression; conditions: both partners purified
T8 construct: RhoB, mutant L63, cDNA in the pHIS parallel2 vector; also called 6his-RhoL63; source: E. coli BL21, purified (Ni-NTA, native condition); not shown: 6xHis, N-terminal, kept

GST-RhoBL63 [4] = biological target: T1, GST-RhoBL63; assay: SPR; BIAcore T200; GST fusion Rho captured (about 1000 RU) by anti-GST antibody on CM5 chip, scFvs injected 6.25-100 nM, single-cycle kinetics, HBS-P pH 7.4, 25°C, GST alone as reference channel, 1:1 Langmuir model; conditions: both partners purified

T5 sequence (P61586 other isoform, or with tags, fused parts or gaps L63 | L63): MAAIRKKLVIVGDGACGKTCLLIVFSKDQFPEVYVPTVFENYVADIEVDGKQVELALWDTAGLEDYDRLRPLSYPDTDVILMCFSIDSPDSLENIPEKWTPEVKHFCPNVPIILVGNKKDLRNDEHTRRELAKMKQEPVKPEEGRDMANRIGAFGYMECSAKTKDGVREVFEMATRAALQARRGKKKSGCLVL
T6 sequence (P62745 whole entry): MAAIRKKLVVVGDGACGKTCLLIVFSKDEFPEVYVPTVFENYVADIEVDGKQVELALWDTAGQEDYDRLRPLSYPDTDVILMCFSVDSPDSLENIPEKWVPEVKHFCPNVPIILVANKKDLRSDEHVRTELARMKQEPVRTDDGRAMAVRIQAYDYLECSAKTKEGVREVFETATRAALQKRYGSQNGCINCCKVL
T3 sequence (P08134 whole entry): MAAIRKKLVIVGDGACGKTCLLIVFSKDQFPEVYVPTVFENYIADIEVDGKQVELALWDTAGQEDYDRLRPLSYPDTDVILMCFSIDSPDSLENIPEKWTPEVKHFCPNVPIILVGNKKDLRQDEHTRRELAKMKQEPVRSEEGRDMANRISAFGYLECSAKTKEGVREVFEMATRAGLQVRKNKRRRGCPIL
T4 sequence (P62745 whole entry): as the sequence (P62745 whole entry) above
T2 sequence (P61586 whole entry): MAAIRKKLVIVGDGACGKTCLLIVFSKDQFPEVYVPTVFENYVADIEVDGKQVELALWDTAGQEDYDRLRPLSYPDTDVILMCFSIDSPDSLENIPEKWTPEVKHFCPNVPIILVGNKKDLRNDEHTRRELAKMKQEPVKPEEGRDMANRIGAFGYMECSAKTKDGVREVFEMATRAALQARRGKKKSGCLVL
T7 sequence (P61586 whole entry): as above
T8 sequence (P62745 other isoform, or with tags, fused parts or gaps L63 | L63): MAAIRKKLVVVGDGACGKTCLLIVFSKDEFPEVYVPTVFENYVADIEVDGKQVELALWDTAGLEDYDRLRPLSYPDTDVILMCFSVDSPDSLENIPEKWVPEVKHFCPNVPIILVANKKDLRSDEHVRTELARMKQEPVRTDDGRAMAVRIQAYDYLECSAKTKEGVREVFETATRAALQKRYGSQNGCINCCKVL
T1 sequence (P62745 other isoform, or with tags, fused parts or gaps L63 | L63): as above
Sequence of GST-RhoAL63 (P61586 other isoform, or with tags, fused parts or gaps L63 | L63): as the sequence (P61586 other isoform, or with tags, fused parts or gaps L63 | L63) above
Sequence of GST-RhoCL63 (P08134 other isoform, or with tags, fused parts or gaps L63 | L63): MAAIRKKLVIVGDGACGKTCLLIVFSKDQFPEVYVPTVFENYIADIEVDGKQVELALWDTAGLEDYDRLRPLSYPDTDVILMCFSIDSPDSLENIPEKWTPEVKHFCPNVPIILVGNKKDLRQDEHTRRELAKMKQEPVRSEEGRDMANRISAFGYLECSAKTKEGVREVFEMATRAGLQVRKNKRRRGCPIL

B1: C1 (scFvC1) (antibody, V domains shown)
VH: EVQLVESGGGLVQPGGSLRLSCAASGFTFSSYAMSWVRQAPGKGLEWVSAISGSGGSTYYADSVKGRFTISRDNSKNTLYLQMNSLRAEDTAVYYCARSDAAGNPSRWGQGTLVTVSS
VL: SSELTQDPAVSVALGQTVRITCQGDSLRSYYASWYQQKPGQAPVLVIYGKNNRPSGIPDRFSGSSSGNTASLTITGAQAEDEADYYCNSRDSSGNHAYVFGGGTKLTVL
- binding result (GST-RhoAL63): binds
- binding result (GST-RhoCL63): binds
- binding result (GST-RhoBL63 [1]): binds

B2: scFvD10-NP3-CBD (scFvD10 in fusion with the Chitin Binding Domain, on chitin beads) (scFv, V domains shown)
VH: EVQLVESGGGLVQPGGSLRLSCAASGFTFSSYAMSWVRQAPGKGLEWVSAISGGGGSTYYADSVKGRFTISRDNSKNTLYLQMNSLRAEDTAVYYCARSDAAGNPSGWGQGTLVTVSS
VL: SSELTQDPAVSVALGQTVRITCQGDSLRSYYASWYQQKPGQAPVLVIYGKNNRPSGIPDRFSGSSSGNTASLTITGAQAEDEADYYCNSRDSSGNHAYVFGGGTKLTVL
notes: as the scFv of m2; Order scFv, NP3, CBD from the plasmid pHEN-scFv-NCBD; not shown: NP3 (N-terminal domain of the phage P3 protein), C-terminal, kept
- binding result (endogenous RhoA): binds
- binding result (endogenous RhoC): binds

B3: scFvE3-NP3-CBD (scFvE3 in fusion with the Chitin Binding Domain, on chitin beads) (scFv, V domains shown)
VH: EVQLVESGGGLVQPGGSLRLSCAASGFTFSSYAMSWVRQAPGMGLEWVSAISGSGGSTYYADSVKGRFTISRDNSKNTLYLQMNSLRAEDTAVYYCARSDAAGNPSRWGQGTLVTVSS
VL: SSELTQDPAVSVALGQTVRITCQGDSLRSYYTSWYQQKPGQAPVRVIYGKNNRPSGVPDRFSGSSSGNTASLTITGAQAEDEADYYCNSRDSSGNHAYVFGGGTKLTVL
notes: as the scFv of m3; Order scFv, NP3, CBD from the plasmid pHEN-scFv-NCBD; not shown: NP3 (N-terminal domain of the phage P3 protein), C-terminal, kept
- binding result (endogenous RhoB): binds

B4: scFvF7-NP3-CBD (scFvF7 in fusion with the Chitin Binding Domain, on chitin beads) (scFv, V domains shown)
VH: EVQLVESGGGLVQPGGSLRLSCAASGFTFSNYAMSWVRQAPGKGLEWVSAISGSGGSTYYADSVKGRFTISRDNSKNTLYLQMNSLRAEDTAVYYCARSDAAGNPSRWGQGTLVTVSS
VL: SSELTQDPAVSVALGQTVRITCQGDSLRSYYASWYQQKPGQAPVLVIYGKNNRPSGIPDRFSGSSSGNTASLTITGAQAEDEADYYCNTRDSSGNHAYVFGGGTKLTVL
notes: as the scFv of m1; Order scFv, NP3, CBD from the plasmid pHEN-scFv-NCBD; not shown: NP3 (N-terminal domain of the phage P3 protein), C-terminal, kept
- binding result (endogenous RhoA): binds
- binding result (endogenous RhoC): binds
- binding result (endogenous RhoB): binds

B5: scFvD10 (soluble, in fusion with the N-terminal domain of the phage P3 protein) (scFv, V domains shown)
VH: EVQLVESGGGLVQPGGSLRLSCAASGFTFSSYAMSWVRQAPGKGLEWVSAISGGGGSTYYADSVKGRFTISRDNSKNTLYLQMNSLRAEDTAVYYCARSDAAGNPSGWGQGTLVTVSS
VL: SSELTQDPAVSVALGQTVRITCQGDSLRSYYASWYQQKPGQAPVLVIYGKNNRPSGIPDRFSGSSSGNTASLTITGAQAEDEADYYCNSRDSSGNHAYVFGGGTKLTVL
notes: evolved variant of scFvC1 (VH, linker, VL); also called clone D10; source: E. coli XL1 blue, periplasmic fraction, purified (Ni-NTA); not shown: NP3 (N-terminal domain of the phage P3 protein), C-terminal, kept
- Kd (6xHis-RhoAL63): 3.38 nM
- binding result [2]: no binding
- binding result [3]: binds

B6: scFvE3 (soluble, in fusion with the N-terminal domain of the phage P3 protein) (scFv, V domains shown)
VH: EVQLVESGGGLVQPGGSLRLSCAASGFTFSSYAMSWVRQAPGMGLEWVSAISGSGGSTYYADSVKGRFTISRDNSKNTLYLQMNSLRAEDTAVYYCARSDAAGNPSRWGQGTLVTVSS
VL: SSELTQDPAVSVALGQTVRITCQGDSLRSYYTSWYQQKPGQAPVRVIYGKNNRPSGVPDRFSGSSSGNTASLTITGAQAEDEADYYCNSRDSSGNHAYVFGGGTKLTVL
notes: evolved variant of scFvC1 with 4 substitutions located within the scaffold, without D100N; Isolated by subtractive panning (GST-RhoAL63 counter-selection, GST-RhoBL63 selection); also called clone E3; source: E. coli XL1 blue, periplasmic fraction, purified (Ni-NTA); not shown: NP3 (N-terminal domain of the phage P3 protein), C-terminal, kept
- Kd (6xHis-RhoAL63): 22.9 nM
- Kd (6xHis-RhoBL63): 3.63 nM
- binding result [2]: binds
- fold higher affinity than for GST-RhoAL63 (GST-RhoBL63 [4]): 10 fold

B7: scFvF7 (soluble, in fusion with the N-terminal domain of the phage P3 protein) (scFv, V domains shown)
VH: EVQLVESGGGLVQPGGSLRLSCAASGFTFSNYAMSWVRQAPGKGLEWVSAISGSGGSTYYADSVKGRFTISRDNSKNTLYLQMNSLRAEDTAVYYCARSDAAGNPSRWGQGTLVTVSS
VL: SSELTQDPAVSVALGQTVRITCQGDSLRSYYASWYQQKPGQAPVLVIYGKNNRPSGIPDRFSGSSSGNTASLTITGAQAEDEADYYCNTRDSSGNHAYVFGGGTKLTVL
notes: evolved variant of scFvC1 (VH, linker, VL); also called clone F7; source: E. coli XL1 blue, periplasmic fraction, purified (Ni-NTA); not shown: NP3 (N-terminal domain of the phage P3 protein), C-terminal, kept
- Kd (6xHis-RhoAL63): 2.33 nM
- Kd (6xHis-RhoBL63): 4.94 nM
- binding result [2]: binds
- binding result [3]: binds
